Consider 1 substance from patent US20060115839A1.

This experiment concerns the target T1, histone H3 peptide with dimethylated Lys79 (isothermal titration calorimetry).
T1 sequence (peptide, dimethylated Lys79): IAQDFKTDLR
Put plainly: isothermal titration calorimetry (data not shown). (In general: ITC needs no label: the signal is the heat of the interaction.)

Chain of 53BP1 tandem tudor domain (isothermal titration calorimetry) (P70399 1480-1621 limits assumed): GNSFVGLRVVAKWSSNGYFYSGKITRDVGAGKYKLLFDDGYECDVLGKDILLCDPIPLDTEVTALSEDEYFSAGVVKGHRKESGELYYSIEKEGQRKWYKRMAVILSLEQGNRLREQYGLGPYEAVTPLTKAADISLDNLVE

On to “53BP1 tandem tudor domain (isothermal titration calorimetry) (from UniProt P70399 1480-1621)”, for which the Kd (commonly the equilibrium constant for the complex coming apart) is less than 1000 nM.
